According to US20060239966A1:

Columns and labels:
[1] = target: GFRα2/Fc fusion protein (R&D Systems); assay: GFRα2 ELISA: GFRα2/Fc on anti-human Fc plate, Ret-AP detection; conditioned medium of transfected CHO cells
[2] = target: GFRα2/Fc fusion protein (R&D Systems); assay: GFRα2 ELISA: GFRα2/Fc on anti-human Fc plate, Ret-AP detection; conditioned medium of transfected HiB5 cells
[3] = target: GFRα2/Fc fusion protein (R&D Systems); assay: GFRα2 ELISA: GFRα2/Fc on anti-human Fc plate, Ret-AP detection; conditioned medium of transfected HEK293 cells
[4] = target: GFRα2/Fc fusion protein (R&D Systems); assay: GFRα2 ELISA: GFRα2/Fc on anti-human Fc plate, Ret-AP detection; conditioned medium of transfected ARPE-19 cells

Binder	fold higher GFRα2 binding activity of conditioned medium (wt construct set to 1) [1] [fold]	fold higher GFRα2 binding activity of conditioned medium (wt construct set to 1) [2] [fold]	fold higher GFRα2 binding activity of conditioned medium (wt construct set to 1) [3] [fold]	fold higher GFRα2 binding activity of conditioned medium (wt construct set to 1) [4] [fold]
Neurturin secreted from cells transfected with the dpro-NTN construct (wt NTN signal peptide fused to human mature NTN, no pro-region) (ligand) ARLGARPCGLRELEVRVSELGLGYASDETVLFRYCAGACEAAARVYDLGLRRLRQRRRLRRERVRAQPCCRPTAYEDEVSFLDAHSRYHTVHELSARECACV	4.1	7.5	90	117
Neurturin secreted from cells transfected with the IgSP-NTN construct (mouse immunoglobulin heavy chain signal peptide fused to human mature NTN) (ligand) ARLGARPCGLRELEVRVSELGLGYASDETVLFRYCAGACEAAARVYDLGLRRLRQRRRLRRERVRAQPCCRPTAYEDEVSFLDAHSRYHTVHELSARECACV	66	162	278	771
